Assay results as given in patent US20260056186A1 (JIANGSU HENGRUI PHARMACEUTICALS, published 2026).

Key:
IFNAR1 [1] = biological target: T1, IFNAR1 (human, UniProt P17181 28-557); assay: cell-based or functional assay
T1 sequence (looked up): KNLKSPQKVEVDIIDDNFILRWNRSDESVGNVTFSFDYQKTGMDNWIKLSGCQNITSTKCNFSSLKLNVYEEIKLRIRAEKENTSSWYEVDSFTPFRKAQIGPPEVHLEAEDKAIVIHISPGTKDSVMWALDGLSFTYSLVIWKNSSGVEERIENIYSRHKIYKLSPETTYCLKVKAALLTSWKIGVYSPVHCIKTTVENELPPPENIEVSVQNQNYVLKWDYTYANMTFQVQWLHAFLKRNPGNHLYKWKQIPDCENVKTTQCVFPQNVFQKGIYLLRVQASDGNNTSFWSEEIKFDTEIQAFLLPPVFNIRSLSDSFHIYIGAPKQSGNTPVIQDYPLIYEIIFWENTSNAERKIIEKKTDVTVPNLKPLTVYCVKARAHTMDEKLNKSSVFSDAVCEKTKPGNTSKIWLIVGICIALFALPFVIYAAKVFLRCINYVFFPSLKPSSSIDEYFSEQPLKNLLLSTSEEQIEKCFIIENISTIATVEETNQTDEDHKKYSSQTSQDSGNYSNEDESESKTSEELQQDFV

IFNAR1 [2] = biological target: T1, IFNAR1; assay: cell-based or functional assay; remark: listed apart in the source
[3] = biological target: T2, recombinant human BAFF (R&D cat: 7537-BF-025/CF) (human, UniProt Q9Y275 134-285); assay: cell-based or functional assay
[4] = biological target: T3, recombinant human APRIL (R&D cat: 5860-AP-010/CF) (human, UniProt O75888 105-250, limits assumed); assay: cell-based or functional assay
T3 sequence (looked up): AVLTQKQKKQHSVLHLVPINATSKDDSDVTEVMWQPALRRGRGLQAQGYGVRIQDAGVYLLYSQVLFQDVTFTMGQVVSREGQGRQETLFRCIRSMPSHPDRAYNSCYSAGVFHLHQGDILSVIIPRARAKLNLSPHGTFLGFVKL

[5] = biological target: T2, recombinant human BAFF (R&D cat: …); assay: cell-based or functional assay; remark: listed apart in the source
[6] = biological target: T3, recombinant human APRIL (R&D cat: …); assay: cell-based or functional assay; remark: listed apart in the source
[7] = biological target: T4, APRIL (Acro Biosystems, Cat: APL-H52D1) (UniProt O75888 115-250, limits assumed); assay: ELISA, APRIL coated at 1 ug/mL, anti-human Fc-HRP, OD450
T4 construct: also called ARPIL
T4 sequence (looked up): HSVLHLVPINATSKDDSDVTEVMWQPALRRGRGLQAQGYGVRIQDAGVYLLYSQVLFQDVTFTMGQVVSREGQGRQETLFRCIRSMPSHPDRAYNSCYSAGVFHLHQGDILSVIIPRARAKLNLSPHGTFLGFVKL
Experimental: The capabilities of fusion proteins B606401, B637302, B746201, and B805201 to bind to BAFF and APRIL were assessed by ELISA as follows:
BAFF (PeproTech, Cat: 310-13) or ARPIL (Acro Biosystems, Cat: APL-H52D1) was diluted to 1 μg/mL with PBS, and a 96-well plate was coated with the dilution overnight at 4° C. The plate was washed with PBST and blocked with Blocking Buffer (PBST containing 1% BSA) at 37° C. for 1 h. The plate was tapped. The test antibodies were diluted with Blocking Buffer. Incubation was performed at 37° C. for 1.5 h. The plate was washed with PBST. An HRP-mouse anti-human Fc antibody (GenScript, Cat: A01854-200) was diluted with Blocking Buffer. Incubation was performed at 37° C. for 40 min. The plate was washed with PBST. 100 μL of TMB substrate solution (Biopanda, Cat: TMB-S-003) was added, and color development was performed at 37° C. for 3 min. 100 μL of ELISA stop solution (Solarbio, Cat: C1058) was added. OD450 was measured.

IC50, inhibition of IFN-alpha-induced in vitro differentiation of B cells into plasma cells (CD27+ CD38+) (IFNAR1 [1]): 17.4 nM | IC50 (nM), inhibition of the activity of type I interferons (IFN-beta, HEK-Blue IFN-alpha/beta reporter cells) (IFNAR1 [2]): 1.94 nM | Flow cytometry proliferating B cell proportion (%), mean value, BAFF-induced, drug at 10 nM (IgG1: 40.15) [3]: 28.1% | Flow cytometry proliferating B cell proportion (%), mean value, BAFF-induced, drug at 100 nM (IgG1: 40.60) [3]: 25.3% | Flow cytometry proliferating B cell proportion (%), mean value, BAFF-induced, drug at 1000 nM (IgG1: 33.97) [3]: 17.9% | Flow cytometry proliferating B cell proportion (%), mean value, APRIL-induced, drug at 4.12 nM (IgG1: 55.30) [4]: 52% | Flow cytometry proliferating B cell proportion (%), mean value, APRIL-induced, drug at 12.35 nM (IgG1: 54.80) [4]: 52.9% | Flow cytometry proliferating B cell proportion (%), mean value, APRIL-induced, drug at 37.04 nM (IgG1: 56.63) [4]: 53.6% | Flow cytometry proliferating B cell proportion (%), mean value, APRIL-induced, drug at 111.11 nM (IgG1: 55.83) [4]: 53.1% | Flow cytometry proliferating B cell proportion (%), mean value, APRIL-induced, drug at 333.33 nM (IgG1: 56.27) [4]: 50.6% | Flow cytometry proliferating B cell proportion (%), mean value, APRIL-induced, drug at 1000.00 nM (IgG1: 53.27) [4]: 40.3% | CD27+ CD38+ plasma cell count, mean value, BAFF + APRIL-induced (both ligands together), drug at 100 nM (IgG1: 2496) [5]: 549 cells | CD27+ CD38+ plasma cell count, mean value, BAFF + APRIL-induced (both ligands together), drug at 1000 nM (IgG1: 2279) [5]: 426 cells | CD27+ CD38+ plasma cell count, mean value, BAFF + APRIL-induced (both ligands together), drug at 10 nM (IgG1: 2687) [6]: 654 cells | CD27+ CD38+ plasma cell count, mean value, BAFF + APRIL-induced (both ligands together), drug at 100 nM (IgG1: 2496) [6]: 549 cells | CD27+ CD38+ plasma cell count, mean value, BAFF + APRIL-induced (both ligands together), drug at 1000 nM (IgG1: 2279) [6]: 426 cells | EC50 [7]: 0.607 nM | Emax [7]: 2.81
B1: B606401 (other)
heavy: EVQLVQSGAEVKKPGESLKISCKGSGYIFTNYWIAWVRQMPGKGLESMGIIYPGDSDIRYSPSFQGQVTISADKSITTAYLQWSSLKASDTAMYYCARHDIEGFDYWGRGTLVTVSSASTKGPSVFPLAPSSKSTSGGTAALGCLVKDYFPEPVTVSWNSGALTSGVHTFPAVLQSSGLYSLSSVVTVPSSSLGTQTYICNVNHKPSNTKVDKRVEPKSCDKTHTCPPCPAPEFEGGPSVFLFPPKPKDTLMISRTPEVTCVVVDVSHEDPEVKFNWYVDGVEVHNAKTKPREEQYNSTYRVVSVLTVLHQDWLNGKEYKCKVSNKALPASIEKTISKAKGQPREPQVYTLPPSRDELTKNQVSLTCLVKGFYPSDIAVEWESNGQPENNYKTTPPVLDSDGSFFLYSKLTVDKSRWQQGNVFSCSVMHEALHNHYTQKSLSLSPGK
light: EIVLTQSPGTLSLSPGERATLSCRASQSVSSSFFAWYQQKPGQAPRLLIYGASSRATGIPDRLSGSGSGTDFTLTITRLEPEDFAVYYCQQYDSSAITFGQGTRLEIKRTVAAPSVFIFPPSDEQLKSGTASVVCLLNNFYPREAKVQWKVDNALQSGNSQESVTEQDSKDSTYSLSSTLTLSKADYEKHKVYACEVTHQGLSSPVTKSFNRGECGGGGSGGGGSSTSCREEQGEFYDHLLRDCISCASICGQHPKQCAAFCE
notes: Fusion protein of anifrolumab and TACI-19-16 (C-terminus of the light chain)
